Where no end group is shown, it is not given here.

For the assay, the target named is Rh-(Crk-II)-Fl (mouse, UniProt Q64010 2-304, N-alpha-tetramethylrhodamine (Rh) on the N-terminal KRG peptide); Dapa(Fl) = diaminopropionic acid-fluorescein in the C-terminal peptide; K-epsilon-(Biotin) and C-terminal amide (present in the …). Kind of assay: cell-based or functional assay.
Chain of Rh-(Crk-II)-Fl (Q64010 other isoform, or with tags, fused parts or gaps limits assumed): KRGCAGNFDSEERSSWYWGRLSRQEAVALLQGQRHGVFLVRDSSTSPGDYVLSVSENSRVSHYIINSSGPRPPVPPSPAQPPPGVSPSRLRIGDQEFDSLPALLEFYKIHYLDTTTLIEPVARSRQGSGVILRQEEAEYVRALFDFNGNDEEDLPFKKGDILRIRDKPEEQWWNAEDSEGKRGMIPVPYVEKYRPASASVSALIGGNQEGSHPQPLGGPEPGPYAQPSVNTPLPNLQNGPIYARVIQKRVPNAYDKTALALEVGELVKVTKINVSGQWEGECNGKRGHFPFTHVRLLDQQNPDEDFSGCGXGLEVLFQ

For the molecule PPPALPPKRRR-NH2 [PPPALPPKRRR-NH2, high affinity ligand for the N-SH3 domain of Crk], the “reduction in the change in FRET after 60 minutes reaction with full length c-Abl, relative to the positive control” value turned out to be 50%.
